Measured values from the domain aggregation screens of Martell et al. (2025).

Assay: soluble fraction after stress (log2 fold change); higher = more stays soluble; pooled small domains, quantitative proteomics
Conditions: stress: pH 4
Method in brief: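 Aggregation propensity is estimated from the fold change in each domain's soluble amount after acid stress. Pooled small-domain libraries were stressed at pH 4, and higher log2 values mean more stayed soluble.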
For “HMDVADITGTRKAAILLLTMDEELSKELLKEFERHEIEAIGKEIANIKYIPENIVKQVHSEFLKNINKS”, the “soluble fraction (log2)” value was -0.752.
In the case of “HMDVFTAKTASHIQELREKLGQQAVFGRSDVQNALGLKATRSSALLREMAEHGIIEPVTGYGKGRYHFRS”, the “soluble fraction (log2)” value was 0.361.
In the case of “HMDVIDDAQAMEIALEDAGLSMDDLDRYELELHTKRSELVYSIELKSGTEEYEYDLRAADGTILKRDTDF”, the “soluble fraction (log2)” value was -0.799.
For “HMDVLDVADNVNDDMSFADAFAAARSEVGAGGIFYWHGKAYGTYYENEWAGMSEEDKADYWDAVARTTS”, the “soluble fraction (log2)” value was -0.779.
For “HMDVLSPEEWIEFRTAYNNNRYISQYGSKGATIEDDYATRLAMIGGKESYYFLNDPRWTEPGYGNLK”, the “soluble fraction (log2)” value was -1.45.
In the case of “HMDVMNEIQQKAFDIYIQSASLKNDFTPISERALAKKLHDMGLKSSMSAIGRWKKKFGWVQSLQNKVTLA”, the “soluble fraction (log2)” value was -0.183.
In the case of “HMDVNKDLLGETLEKAKSYKADDWRKASYEALQKAIVEAEAVYKDEEADQVAVDRKVAALNKAINNLEAKG”, the “soluble fraction (log2)” value was 0.241.
In the case of “HMDVNPETLSYYIERADISLDELRTSVKGIDLFLTGEKQPTFNQISNIAKKLNIPTGLLLINKPIEI”, the “soluble fraction (log2)” value was -1.37.
In the case of “HMDVNSRIRQFLKKMKITVQTFESSIGKTNGYIAHTKSPTAGVLAEIAKVYPDLNLDWLITGEGEMLKN”, the “soluble fraction (log2)” value was -0.0635.
In the case of “HMDVPTSSITEVKKSPMDVFAQARKAETGVYIFNREKIAGVMLTKEQYEALVEELNTLRDTL”, the “soluble fraction (log2)” value was -1.24.
For “HMDVQEILGALSPDEKAAIGQLTSGEKHIDQIIAATRLPAARITSALTLLQIKGYVRALPGKRFSLTEKQ”, the “soluble fraction (log2)” value was at least 0.43.
For “HMDVQPTTTKTMFYTVQQGETLFSISRKFGISVEEITKKNPLASSGLTVGMELLLPEKKEINSTIQS”, the “soluble fraction (log2)” value was -0.0195.
For “HMDVSEITTIKWIIKETKLGINEKILIYVNSKNFTVETLMEGFEIMSKYLVENVSSDKIVYIKN”, the “soluble fraction (log2)” value was 0.22.
For “HMDVTDRLARRLQGLRSAQGLSLDALAARSGVSRSNISLIERGQSSPTATVLDKLSAALGVTLAALFEEP”, the “soluble fraction (log2)” value was 0.00664.
With “HMDWVAYGAELRRRRLLAGWTVAELSRRINLSGMTIHQIEKGRGRLRPSELTLAKLAAALGMPTP” the “soluble fraction (log2)” value was at least 0.43.
With “HMDYEVPEELEEKFSENPQFKEAFDNLTPGRQHQYIYHISQAKRSQTRINRIEKYYEHILNGKGMQD” the “soluble fraction (log2)” value was 0.416.
For “HMDYGTATASAILYLEKIDPENPYLLLAKDTITTNPKMSVNFALKGIIESKKGEKEENLNKALEIMSSL”, the “soluble fraction (log2)” value was 0.0949.
With “HMDYKSNLQEMVQTTKKSVTYELVKEEGPAHDRTFTMNVIVDGIVLGTGTAKSKKEAEQEAAHQALEKKA” the “soluble fraction (log2)” value was -0.0453.
For “HMDYTGIPQSLLDLMKKDNIMPMQIQRAVAERNYYPVDTPISNYDPMFIEAKLVGAWDQVLNVISHLDLP”, the “soluble fraction (log2)” value was -1.51.
In the case of “HMDYTPIEVKDLPQAIQDALTKNFSEYTVKSAAYQEDEDGVKIYQVTVVDEEGTEANIFFTEKGE”, the “soluble fraction (log2)” value was 0.00729.
In the case of “HMEADERRNEILDAAETLITEKGYSKTTIIDILNQVGIAKGTFYYYFKSKEEVMDAIIERFI”, the “soluble fraction (log2)” value was -1.33.
For “HMEAEGLDFAPMPGEIGKKLWQEVSKEAWAGWLKHQTMLVNENRLSFVDPAARKYLTEQTEAYFFG”, the “soluble fraction (log2)” value was -0.248.
For “HMEAEMLYQVKVKITNLVIRSGAGAIYPIVKRYASGVLPIYEEKNGYGKIAVGQWISLSPEFVERVD”, the “soluble fraction (log2)” value was -0.0106.
With “HMEAEPRLLDLPPGTRAGRLDKVLAQLLPEHSRSRLQGWIERGGVLVNGKEASVRQVVGPGDQLTVWEEAA” the “soluble fraction (log2)” value was 0.0341.
With “HMEAEQLEAIRSALQQLSDMNRTVFNLHVVDGYKHEEIAAMLNITTGTSKAHLHRAKKRLRELID” the “soluble fraction (log2)” value was -0.745.
With “HMEAEVIKTASDMADRNGLHNVSLKAIAENLGIRTPSLYNHIGSLDELLREIAHSGMRTMNE” the “soluble fraction (log2)” value was -0.247.
With “HMEAFAEAVASMLRKLQPEFAIDLVGPRELLVNGRRLDLENLYRMVNHEPVRGQEIVEHYLDQLFAG” the “soluble fraction (log2)” value was -0.665.
For “HMEAGLRMPEQLTAFSALALLQKVRDSGPLTDAQKEQLDADVLRIEASHFGKADREALELEEILKQWLSRV”, the “soluble fraction (log2)” value was -0.889.
In the case of “HMEAKSSTKALLDVVLGRNGVSTANVAKSLNISVQNASTRLKKLSSEGVIMRSEVSSPTGGIEFIYS”, the “soluble fraction (log2)” value was 0.22.
For “HMEAKTSNPDYHARLGLTEGEGNDSALGVSVKAAEGGFGLLFGNKVGSDQLVRFANEDQVWLVNRALS”, the “soluble fraction (log2)” value was 0.0693.
With “HMEALNIEQKKVEIINVLLEKGKGKGRLSYKEISDQIDTVELDKDQMDELYETLMTNGIEIV” the “soluble fraction (log2)” value was -1.43.
With “HMEALPSNLRRLRLEAQLTLDRLGALSGVSRAMISKIERGASVPTATMLGKLAAALQVSLSQLL” the “soluble fraction (log2)” value was -0.263.
With “HMEAMITEVKRINYGLISDISKSLDPFKSEGGHIIVDKRTNTFILTDLRANIEKMLWSIEIMD” the “soluble fraction (log2)” value was -0.248.
For “HMEAPNELLVPEGARPARADRVLAAAFPEHSRTALQRAFDAGLVRRANLVLSRDTAVAGGDRIAFSLPAV”, the “soluble fraction (log2)” value was 0.0302.
For “HMEARYQLREVSLDGLRSGMILNADVLSTDGVLMARKGLEVSGLLRSRLEAFAKMERIEPTFKVLVPIAPP”, the “soluble fraction (log2)” value was 0.284.
For “HMEASSTAIQAMIRRLIDDENPRKPLSDAKLADLLKSSGIPVARRTVAKYREAMNISASHERVRI”, the “soluble fraction (log2)” value was 0.17.
In the case of “HMEATEFYLEDLTGQMYNDVVNDEKYAGKIVFEKEEVQSDGEEAIGQILNQRPAGNMNVRIGTTVTLVVNA”, the “soluble fraction (log2)” value was -0.201.
In the case of “HMEATVGSRVRLARIGLTLTQKQLAQAVGVSANHLAMVERGSKHASEDLLQRIATATHTTYEWLMGTSEHQ”, the “soluble fraction (log2)” value was 0.174.
In the case of “HMEAVIENAAIIKQNSGGYAVRATVNGVDLGMKPVERATALLYFSLTDKLEKDRLLSHTLQKTYGDLSA”, the “soluble fraction (log2)” value was -0.213.
In the case of “HMEAYLPVTVVSDGKILTGNLEKAGKNEKWLENVLSELKTDVKNTLLLTVDPKDGLIFYPKG”, the “soluble fraction (log2)” value was 0.0447.
In the case of “HMEAYMVPNVKNKTLNEAQQALSNQKLKGLVIDSSYVKGVPDGMVLDQNPAGGARVKEGRTIYLTVTTS”, the “soluble fraction (log2)” value was 0.259.
For “HMEDADERRALEVLNQLLDLPEREQEAALAALSLPPALARRVRSLLSVQTRAADLFDTAPSP”, the “soluble fraction (log2)” value was -0.6.
For “HMEDAFLQRLISIIEANLSNVDFNVKMLAEQLNMSQPTLYRKVKQRSELSVIDMIRSIRILSLIHISEPTR”, the “soluble fraction (log2)” value was -0.919.
With “HMEDDRLIQNLLLTAKNLVMDVGRMDESALAENEDTVRTAMLFALGYLYENRSNPDYHKLTLNLRSILFA” the “soluble fraction (log2)” value was -0.807.
For “HMEDEISLGAINVPRGSVIVTAGGARLVEGSDYTVDYYSGTVKILNKSLLDAGTPINVSLET”, the “soluble fraction (log2)” value was -0.0859.
For “HMEDETAKVLRLLAENNGYLPYNDKSDPTDIYAFFGMSKKAFKMTTGNLYKQKKIQFTQTGIQLIE”, the “soluble fraction (log2)” value was -0.16.
In the case of “HMEDEVSSSAAYQALLEKGVSKTLARSWVIDYGEAYVLDKVDLTTSQAARGKIKSSTAGFLKAAIEEDFHN”, the “soluble fraction (log2)” value was -0.765.
In the case of “HMEDGEALARAVASLPGKYREVLFLKYSHGYSVDEIALILSMSKENVKKTIQRARKKLEQLLESE”, the “soluble fraction (log2)” value was -0.507.
In the case of “HMEDGEVTVPDLRGLTIKEAGTILEKLGLHLSPVGTGLAVRQDVAPGSKVARDTTITVEFEPPDIQVLR”, the “soluble fraction (log2)” value was -0.259.
For “HMEDIKHVVANNIKKYRKEERLTLQQLSYLTGVSKTMLNQIETEKSSPSITILWRISSGLKIPLSKLISSP”, the “soluble fraction (log2)” value was 0.143.
In the case of “HMEDIPENIRYKFLLKELKENEHLNILDKENIARKLTEIDLPELEKELLENEILNSTIKDYLGIKLV”, the “soluble fraction (log2)” value was -0.912.
For “HMEDKFEYQGELKSLIEPTSFSELVSALNVRDTLQAIIDFAMREEDTSGYEELKVRQNDYIQEYLNSIGNF”, the “soluble fraction (log2)” value was -1.28.
With “HMEDKFEYQGERKSLIYPTSFSELTEALGVRNMLQSIIDFATRDEDTSGYEEMKERQNEYIQEYL” the “soluble fraction (log2)” value was 0.0125.
For “HMEDKKQVLYELITDKSYRPLRFKELAVLLMVPKALRGELKQTLDELIKEGKITVDSSSRYRAA”, the “soluble fraction (log2)” value was 0.276.
With “HMEDLDKIISAYLDENPQIVSDYGKGNKKAVNSAIGFVMKSTGGKYSSSDIVDAVRSMIVSISV” the “soluble fraction (log2)” value was -0.254.
With “HMEDNYYENKINYLFGYLDEADKEISVNSILDFHLAHRTNPEFVFEPKKNTNPLIWKYLSNSNLLY” the “soluble fraction (log2)” value was 0.0187.
In the case of “HMEDPLGDLIGRIAAATGRPVQDIVAEVHRVVTDHFDGNLRVEAAAVILARKYGVAFEDKLSALQRSV”, the “soluble fraction (log2)” value was -0.559.
With “HMEDSAKRHQIMDGARRVFMDLGFDGASMNEIARAAGVSKGTLYVYFTDKNRLFEAIVEQESL” the “soluble fraction (log2)” value was -1.15.
In the case of “HMEDSEYDRLLAEIDEGIRKAIETLEPVELSPQNARVRRIQHQIIEKYQLHSDSVGEEPYRRVRIL”, the “soluble fraction (log2)” value was -1.03.
In the case of “HMEDSHIYPVSFNGKMRFKLELPVSMNKKEIEEVVLQHEDAQKWLNGQNPKKVIVVPKRIINIV”, the “soluble fraction (log2)” value was 0.308.
In the case of “HMEDTVNVPIQINGKLRHVIQVQIGTSEEEIQKIALSEEQVKKFTDGHEILKVMVPKGKLVSIVI”, the “soluble fraction (log2)” value was -0.126.
For “HMEDVLVTQIIQLKHVDANDMKTLFTPLLSRGSSQLLAYPQSNVLIITDTRSNIKKITEILDIIDKS”, the “soluble fraction (log2)” value was -0.838.
In the case of “HMEDVRSLTGPEKAAIILLSLGEEHGQGVWRMFDDEEVKEVSQIMANLGTISASVVEKLLVEFVSQMST”, the “soluble fraction (log2)” value was -1.5.
For “HMEDYYKILGVQSNSNPDDIKKAYRKLSLKHHPDRGGDASEFKKINEAYQTLGTPEKRKMYDMQQNN”, the “soluble fraction (log2)” value was at least 0.43.
For “HMEEEPALLRDLLAKTLEFGLIPQLSHHPALADRTQQLASAVRAAGSASALRNAAASLKSLWIDVDQ”, the “soluble fraction (log2)” value was -0.617.
For “HMEEFDLNAYITKINSAATLNALKQAYAEANSAALSVKDKDAQRKIIVEKDKRKAELIQETAG”, the “soluble fraction (log2)” value was 0.313.
For “HMEEIALTDILNRFLSSLSLEQRKIFMRRYWYLSPIKEIATEYGMSESKIKMSLFRSRNELKKLLEKEGI”, the “soluble fraction (log2)” value was -0.406.
With “HMEEINTAPVFKNIIEIAEYAKTKFTTVEEIPKMIEFIETANSKLDNPHDEESVNELINALSTNIRKNV” the “soluble fraction (log2)” value was -0.554.
In the case of “HMEEITLIAEDEGLRLDTWLTDKLKDYSRSYIQKLMEDELVLVNGKARKANYRIKTGDEIHVSIPEPE”, the “soluble fraction (log2)” value was -0.507.
